Measurements: paper PMC8927860, “Completing the family of human Eps15 homology domains: Solution structure of the internal Eps15 homology domain of γ‐synergin” (Protein Science : A Publication of the Protein Society, 2022)
“Also recorded” adds a separate entry of the source. Ends that are not written are not given here.

T1: EH domain of γ‐synergin (EHγ, residues 279–388) (Homo sapiens, UniProt Q9UMZ2)
T1 construct: His-tag with TEV cleavage site (N, cleaved yes); made in house; host or cells: Escherichia coli BL21(DE3)
T1 sequence (Q9UMZ2 279-388): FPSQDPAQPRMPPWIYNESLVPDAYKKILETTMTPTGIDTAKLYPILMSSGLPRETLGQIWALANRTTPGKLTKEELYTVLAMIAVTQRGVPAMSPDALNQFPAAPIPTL

T2: EH domain of human γ-synergin, longest construct (residues 279–388) (human, UniProt Q9UMZ2 279-388)
T2 chain: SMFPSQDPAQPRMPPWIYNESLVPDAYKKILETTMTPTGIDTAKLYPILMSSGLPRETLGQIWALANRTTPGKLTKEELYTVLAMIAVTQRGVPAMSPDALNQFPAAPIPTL

T3: EH domain of human γ-synergin, longest construct (residues 279–388) (human, UniProt Q9UMZ2 279-388)
T3 construct: two additional residues (Serine-Methionine) left at the N-terminus by the vector pNIC28-Bsa4 after TEV cleavage of the tag; γ-synergin, human, residues 279-388 (EH domain with N- and C-terminal structured extensions); also called EHγ; EHγ domain; source: E. coli BL21(DE3), purified (Ni-IMAC, TEV cleavage, SEC on Superdex 75); 15N-labelled in M9 medium for NMR; not shown: His tag, N-terminal, …
T3 sequence: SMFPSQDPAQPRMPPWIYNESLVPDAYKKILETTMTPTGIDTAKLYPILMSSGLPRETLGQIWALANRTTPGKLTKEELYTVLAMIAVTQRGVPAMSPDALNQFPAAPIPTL


Tests used:
[1] = molecular target: T1, EH domain of γ‐synergin (EHγ, residues 279–388); assay: Isothermal titration calorimetry of SCAMP1 fragments and peptides with EHγ; type: binding; conditions: ITC; for ∆H / ∆S / N (stoichiometry) / KD: 20 mM Tris, 100 mM NaCl, 2 mM CaCl2 pH 7.5, 20°C, one site binding model; for ∆H / ∆S / KD: n.b. = no binding; for N (stoichiometry) / KD: VP-ITC, 50–200 μM EHγ in cell, ligand 700–2000 μM
Experimental: ITC measurements were performed on a VP‐ITC instruments (GE Healthcare, Chalfont St. Giles, UK). The calorimetric cell (with a total cell volume of 1,400 μl) contained 50–200 μM EHγ in 20 mM Tris, 100 mM NaCl, 2 mM CaCl2 pH 7.5. SCAMP1 fragments and peptides A, B, C at 700–2000 μM were titrated into the cell at 20°C. The heat generated after each ligand injection was obtained by integration of the calorimetric signal. Resulting binding isotherms were analyzed according to an one site binding model using the Origin software (OriginLab Corp., Northampton, MA, USA).

[2] = molecular target: T1, EH domain of γ‐synergin (EHγ, residues 279–388); assay: Analytical size exclusion chromatography of EHγ–SCAMP1″ complex; type: binding; conditions: complex compared with isolated EHγ and SCAMP1″; 100 μM EHγ and/or 100 μM SCAMP 1–52, Superdex 200 5/150 GL, 20 mM Tris pH 7.5, 100 mM NaCl, 2 mM CaCl2, 4°C
Experimental: The quality and oligomeric state of the EHγ construct was assessed on an analytical gel filtration column (Superdex 75 5/150 GL, GE Healthcare). To guarantee reproducible and reliable gel filtration runs, an ÄKTAmicro™ (GE Healthcare) was coupled to an auto sampler, which automatically injected with high‐precision 25 μl of protein sample.[36] Analytical gel filtration runs were performed in duplicates in the cold room at a flow rate of 0.2 ml/min in gel filtration buffer (20 mM Tris pH 7.5, 100 mM NaCl, 2 mM CaCl2). The used EHγ construct was injected spanning a concentration range of 10–1,000 μM. The column has been calibrated with protein standards ranging from 6.5 to 75 kDa. Interactions between EHγ and the SCAMP 1–52 fragment were also probed using this analytical gel filtration setup; the proteins alone or the potential complex (at concentrations of 100 μM EHγ and/or 100 μM SCAMP 1–52) were applied to a Superdex™ 200 5/150 GL analytical gel filtration column and analyzed. Analytical gel filtration runs were performed at 4°C at a flow rate of 0.2 ml/min in the gel filtration buffer.

[3] = molecular target: T2, EH domain of human γ-synergin, longest …; assay: ITC
[4] = molecular target: T3, EH domain of human γ-synergin, longest …; assay: NMR titration; unlabelled peptide added stepwise to 15N-labelled EHγ, 1H-15N HSQC, up to n = 2 (Pep A, C) and n = 3.2 (Pep B); 20 mM Tris pH 7.5, 100 mM NaCl, 2 mM CaCl2, 10% D2O, 298 K; joint fit of I324, L325, W339 to a one site binding model; conditions: both partners purified
[5] = molecular target: T3, EH domain of human γ-synergin, longest …; assay: ITC; EHγ 50–200 μM in the cell, SCAMP1 fragments and peptides A, B, C at 700–2000 μM titrated in; 20 mM Tris, 100 mM NaCl, 2 mM CaCl2 pH 7.5, 20°C; one site binding model; conditions: both partners purified

∆H [1] | ∆S [1] | N (stoichiometry) [1] | Kd [3] | Molecule | further results
-12.0 ± 1.5 kcal/mol | -23.3 cal/mol/deg | 1.1 ± 0.2 | – | ADPDLNNPFKDPSVTY-NH2 [Peptide B] | –
-21.1 ± 2.4 kcal/mol | -55.2 cal/mol/deg | 1.2 ± 0.1 | – | SDFDSNPFADPDLNY-NH2 [Peptide A] | –
-22.9 ± 2.7 kcal/mol | -59.8 cal/mol/deg | 1.0 ± 0.1 | – | GLDEYNPFSDSRT-NH2 [Peptide C] | –
– | – | 0.33 ± 0.01 | – | SCAMP1″: NPF repeat rich fragment of SCAMP1 possessing three NPF-motifs (residues 1–52) (MSDFDSNPFADPDLNNPFKDPSVTQVTRNVPPGLDEYNPFSDSRTPPPGGVK; UniProt O15126 1-52, looked up, fragment) | enthalpic/entropic contribution to binding (in words) ([1]; SCAMP1″ (three NPF-motifs) compared to sum of / individual peptides A, B, C): no enthalpic gain; also recorded: largely reduced entropic penalty; complex formation by SEC (elution) [2]: lower retention volume
– | – | – | 9 µM | SCAMP1 (protein, N-terminal cytosolic SCAMP1 construct, residues 1-130 (NPF repeats plus coiled coil, no TM helices); Ser-Met left at the N-terminus after TEV cleavage is omitted; human inferred from the hORFeome source) MSDFDSNPFADPDLNNPFKDPSVTQVTRNVPPGLDEYNPFSDSRTPPPGGVKMPNVPNTQPAIMKPTEEHPAYTQIAKEHALAQAELLKRQEELERKAAELDRREREMQNLSQHGRKNNWPPLPSNFPVG | –
-7.5 ± 1.1 kcal/mol | -2.3 cal/mol/deg | 0.38 ± 0.04 | – | SCAMP1: N-terminal SCAMP1 construct devoid of transmembrane helices, comprising NPF repeat rich motifs and coiled coil (residues 1–130) (protein, UniProt O15126 1-130, looked up, fragment) MSDFDSNPFADPDLNNPFKDPSVTQVTRNVPPGLDEYNPFSDSRTPPPGGVKMPNVPNTQPAIMKPTEEHPAYTQIAKEHALAQAELLKRQEELERKAAELDRREREMQNLSQHGRKNNWPPLPSNFPVG | ∆H ([1]; listed as SCAMP1’): n.b.; ∆S ([1]; listed as SCAMP1’): n.b.; ∆H ([1]; listed as SCAMP1’’): -41.3 ± 1.3 kcal/mol; ∆S ([1]; listed as SCAMP1’’): -118.0 cal/mol/deg; N (stoichiometry) ([1]; listed as SCAMP1’): n.b.; N (stoichiometry) ([1]; listed as SCAMP1’’): 0.33 ± 0.01; KD ([1]; listed as SCAMP1’): n.b.; KD ([1]; listed as SCAMP1’’): 9.9 ± 0.4 µM
– | – | n.b. | – | SCAMP1′: coiled coil domain of N-terminal SCAMP1, devoid of NPF-repeats (residues 65–130) (protein, UniProt O15126 65-130, looked up, fragment) KPTEEHPAYTQIAKEHALAQAELLKRQEELERKAAELDRREREMQNLSQHGRKNNWPPLPSNFPVG | KD [1]: n.b.
– | – | – | 250 µM | SDFDSNPFADPDLNY-NH2 [peptide A, SCAMP1 derived peptide with a single NPF-repeat] | Kd [4]: 110 ± 10 µM
– | – | – | 9.9 µM | SCAMP1″, NPF repeat rich N-terminal fragment of secretory carrier membrane protein 1 (residues 1–52) (domain or fragment, human (hORFeome collection), two additional residues (Serine-Methionine) left by the vector pNIC28-Bsa4 after TEV cleavage (same cloning procedure as for EHγ); secretory carrier membrane protein 1 (SCAMP1), residues 1-52, with three NPF repeats; gene from the hORFeome collection; also called SCAMP 1–52 fragment; NPF-repeats from the N-terminal domain of SCAMP1; source: E. coli BL21(DE3), purified (Ni-IMAC, TEV cleavage, …)) SMMSDFDSNPFADPDLNNPFKDPSVTQVTRNVPPGLDEYNPFSDSRTPPPGGVK | binding result [5]: binds
– | – | – | 140 µM | ADPDLNNPFKDPSVTY-NH2 [peptide B, SCAMP1 derived peptide with a single NPF-repeat] | Kd [4]: 120 ± 30 µM
– | – | – | 90 µM | GLDEYNPFSDSRT-NH2 [peptide C, SCAMP1 derived peptide with a single NPF-repeat] | Kd [4]: 30 ± 20 µM
